Results reported in patent US20140072581A1 (Zymeworks, published 2014).

Biological target: T1, CD3 on HBP-ALL (CD3+) cells (UniProt P07766 23-207)
T1 construct: whole, on cells; CD3 is a multi-chain complex
Test: live cell ELISA on HBP-ALL (CD3+) cells
Procedure: These variants were tested for their ability to bind to cells expressing the target antigen using a live cell ELISA binding assay using filter plates and wash steps carried out using a vacuum manifold (method developed by Anne Marcil at the National Research Council, Montreal, Canada). The method was carried out as follows. Cells were maintained in exponential growth phase and then washed, counted and distributed at 10E5 cells per well in 50% medium, 50% blocking buffer. Dilutions of variants in blocking buffer were added to the cells and incubated for 1 hour at 4° C. After collection and four washes in medium, an HRP-conjugated goat anti-human IgG was added to cells which were incubated for 1 hour at 4° C. After collection and four washes in medium and 3 washes in PBS, TMB substrate was added to cells which were incubated for 25 minutes at room temperature. The reaction was stopped by addition of H₂SO4 and OD read at 450 nm. The ELISA results are depicted in Tables 17 and 18. A, B, and C refer to the ratio of Chain A to Chain B used in expression of the variant: Ratio A=Chain A/Chain B=1:1 A/B=50%/50%; Ratio B=Chain A/Chain B=2:1 A/B=66%/34%; Ratio C=Chain A/Chain B=1:2 A/B=34%/66%.

B1: MOR208-CD19 FSA, variant 2176 (antibody, V domains shown)
VH: EVQLVESGGGLVKPGGSLKLSCAASGYTFTSYVMHWVRQAPGKGLEWIGYINPYNDGTKYNEKFQGRVTISSDKSISTAYMELSSLRSEDTAMYYCARGTYYYGTRVFDYWGQGTLVTVSS
VL: DIVMTQSPATLSLSPGERATLSCRSSKSLQNVNGNTYLYWFQQKPGQSPQLLIYRMSNLNSGVPDRFSGSGSGTEFTLTISSLEPEDFAVYYCMQHLEYPITFGAGTKLEIK
notes: Control; also called 2176 A; anti-CD19 warhead from MOR208
Question: Does B1 bind?
Answer: Result: no binding (tested: OD450 = or < negative control 1041)
